Measured values from patent publication US20220017616A1 (Amgen, published 2022).
Substitutions are numbered along the chain they refer to. “And” between values parts separate entries of the source, which are not always exact repeats. Identical values can stand only once.

Legend:
cynoTIGIT (PL40461) = target: T1, cynoTIGIT (PL40461) (cynomolgus monkey); experiment: Octet, antibody on anti-huIgG Fc capture tips, cynoTIGIT as analyte
T1 construct: Soluble protein; also called Cyno TIGIT (Octet analyte)
T1 sequence (chain, as listed by the source limits assumed): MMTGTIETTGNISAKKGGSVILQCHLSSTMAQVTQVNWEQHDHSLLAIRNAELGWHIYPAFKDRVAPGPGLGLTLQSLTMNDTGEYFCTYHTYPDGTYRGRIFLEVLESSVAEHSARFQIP
Procedure: (§1) In the case of cynoTIGIT, association was monitored for 5 min and dissociation for 5 min. […] The limit of detection of dissociation is 4e-5 based on a minimum of 5% dissociation over 20 minutes.

human TIGIT [1] = target: T2, human TIGIT (human, UniProt Q495A1 22-244); experiment: flow cytometry on CHO-S cells expressing human TIGIT, competitor CD112-Fc-Alexa 647, at 1 ug/mL
T2 construct: Cell-surface form; also called huTIGIT
T2 sequence: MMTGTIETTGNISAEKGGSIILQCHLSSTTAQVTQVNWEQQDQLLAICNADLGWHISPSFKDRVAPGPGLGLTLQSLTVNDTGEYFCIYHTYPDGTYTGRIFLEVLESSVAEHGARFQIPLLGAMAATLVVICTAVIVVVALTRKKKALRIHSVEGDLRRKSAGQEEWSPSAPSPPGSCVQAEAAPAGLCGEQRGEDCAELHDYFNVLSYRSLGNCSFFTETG
Procedure: (§2) TIGIT-binding hybridoma supernatants were then tested for their ability to block TIGIT from binding ligand. […] The 7-AAD cell viability stain was then added and the cells incubated for a further 15 minutes at 4° C., washed twice and resuspended in FACS buffer. Samples were analyzed using a BD Accuri™ Flow Cytometer and an Intellicyt HyperCyt autoSampler.

human TIGIT [2] = target: T2, human TIGIT; experiment: flow cytometry on CHO-S cells expressing human TIGIT, competitor huCD155-Fc-Alexa 647, at 1.7 µg/mL
Procedure: as §2

human TIGIT [3] = target: T2, human TIGIT; experiment: flow cytometry, 1 µg/mL on activated primary human T cells, fold over isotype control
Procedure: (§3) The binding of hybridoma supernatants to TIGIT expressed by primary human and cynomolgus monkey cells were tested by flow cytometry. For human primary cell binding assay, purified human T cells (Biological Specialty Corp.) were thawed and suspended at a concentration of 2.5×10⁶ cells/mL. […] After 72 hours, cells were removed, washed and suspended at a concentration of 0.5×10⁶ cells/mL with 10 ng/mL of IL-2 (Pepro Tech). Cells were then incubated for another 48 to 72 hours at 37° C./5% CO₂. For cynomolgus primary cell binding assay, cynomolgus PBMCs (SNBL) were thawed and suspended in a concentration between 4×10⁶ and 5×10⁶ cells/mL. […] After 72 hours, cells were removed, washed and suspended at a concentration of 0.5×10E6 cells/mL with 20 ng/mL of IL-2 (Pepro Tech). Cells were then incubated for another 48 to 72 hours at 37° C./5% CO₂. After the final incubation, cells were prepared for flow cytometry by incubation with normalized hybridoma supernatants, positive control antibodies and isotype control antibodies at 1 μg/mL final concentration. […] Cells were then run on BD FACSCanto II flow cytometer to detect anti-TIGIT antibody binding.

human TIGIT [4] = target: T2, human TIGIT; experiment: cell-based or functional assay
cynomolgus TIGIT [5] = target: T3, cynomolgus TIGIT (cynomolgus monkey); experiment: flow cytometry on activated primary cyno PBMCs, fold over isotype control
T3 construct: Cell-surface form; also called cyno TIGIT
T3 sequence (chain, as listed by the source): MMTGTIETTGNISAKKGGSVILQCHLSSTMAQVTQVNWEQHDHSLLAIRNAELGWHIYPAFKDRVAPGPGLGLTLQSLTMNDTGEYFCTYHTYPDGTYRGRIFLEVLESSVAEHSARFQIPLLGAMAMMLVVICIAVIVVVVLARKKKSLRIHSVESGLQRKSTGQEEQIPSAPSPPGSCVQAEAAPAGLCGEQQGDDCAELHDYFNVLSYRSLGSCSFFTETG
Procedure: as §3

huTIGIT (PL44403) = target: T4, huTIGIT (PL44403) (human, UniProt Q495A1 22-141); experiment: Octet, antibody on anti-huIgG Fc capture tips, huTIGIT as analyte
T4 construct: Soluble protein; also called Human TIGIT (Octet analyte, mono-Fc tag)
T4 sequence: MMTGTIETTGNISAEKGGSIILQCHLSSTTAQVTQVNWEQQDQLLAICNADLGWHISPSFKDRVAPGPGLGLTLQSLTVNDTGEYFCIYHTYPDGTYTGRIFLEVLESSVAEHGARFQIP
Procedure: as §1

human TIGIT [6] = target: T2, human TIGIT; experiment: cell-based or functional assay; remark: listed apart in the source
human CD155 on cells = target: T5, human CD155 on cells (human, UniProt P15151 21-417); experiment: flow cytometry, CD226-Fc at 10 ug/mL on mock-transfected 293T cells
T5 construct: whole, on cells; also called huCD155
T5 sequence (looked up): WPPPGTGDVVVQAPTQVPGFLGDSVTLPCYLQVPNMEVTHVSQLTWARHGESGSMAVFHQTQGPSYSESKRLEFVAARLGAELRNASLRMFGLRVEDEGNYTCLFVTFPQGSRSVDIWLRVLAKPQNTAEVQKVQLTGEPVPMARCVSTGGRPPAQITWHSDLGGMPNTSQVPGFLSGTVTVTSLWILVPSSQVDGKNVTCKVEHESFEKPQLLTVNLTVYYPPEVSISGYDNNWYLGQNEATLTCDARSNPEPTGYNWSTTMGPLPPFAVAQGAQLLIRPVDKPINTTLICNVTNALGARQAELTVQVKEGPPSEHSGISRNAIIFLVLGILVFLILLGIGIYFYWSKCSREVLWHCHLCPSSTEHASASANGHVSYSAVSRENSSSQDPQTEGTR
Procedure: In the presence of tool TIGIT antibodies, TIGIT expressed by TIGIT-293 cells is bound by tool antibodies and is blocked from binding to CD155, thereby allowing CD226 to interact with CD155. […] Cells were washed 1× with FACS Buffer and resuspended in FACS buffer. Samples were analyzed using a BD Accuri™ Flow Cytometer and an Intellicyt HyperCyt autoSampler.

[7] = target: T6, human CD112R expressed on CHO K1 cells (pMSCV_FLAG_human CD112R (N81D)(41-326)_IRES_EGFP) (human, UniProt Q6DKI7 41-326); experiment: flow cytometry on CHO K1 cells expressing human CD112R
T6 construct: also called huCD112R; human CD112R expressed on CHO cells; not shown: FLAG tag named in the vector
T6 sequence: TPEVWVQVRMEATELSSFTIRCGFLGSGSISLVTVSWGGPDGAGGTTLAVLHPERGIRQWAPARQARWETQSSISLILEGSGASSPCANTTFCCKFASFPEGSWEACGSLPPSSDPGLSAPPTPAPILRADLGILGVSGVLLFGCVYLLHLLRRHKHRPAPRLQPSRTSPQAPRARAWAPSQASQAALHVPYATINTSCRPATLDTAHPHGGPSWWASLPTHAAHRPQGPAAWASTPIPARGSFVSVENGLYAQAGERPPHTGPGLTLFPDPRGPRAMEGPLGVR

cynomolgus TIGIT [8] = target: T3, cynomolgus TIGIT; experiment: flow cytometry, 1 µg/mL on activated primary cyno PBMCs, fold over isotype control
Procedure: as §3

B1: 11A3 (antibody, V domains shown)
VH: QVQLVQSGAEVKKPGASVKVSCKASGYTFTSYYIHWVRQAPGQGLEWMGIINPSGGRTSYAQMFQGRVTLTRDTSTNTVYMELSSLRSEDTAVFYCAKDREEQWPVGGFDYWGQGTLVTVSS
VL: DIQMTQSPSSLSASVGDRVTITCRASQNIRRYLNWYQQKPGKAPELLIYSASNLQNGVPSRFSGSGSGTDFTLTISSLQPEDFATYYCQQSYIIPPTFGQGTKVEIRR
notes: Fully human XenoMouse antibody, tested as hybridoma supernatant or purified mAb
B1 was tested, and the binding result (cynoTIGIT (PL40461)) was “no binding”, the “% inhibition” value (human TIGIT [1]) was 100% and the “% inhibition” value (human TIGIT [2]) was 100%. The “FACS Geomean Fold” value (human TIGIT [3]) was 11.6 fold, the “Potency [nM], Jurkat human TIGIT/IL-2-luciferase RGA, n = 1” value (from here on “Potency [nM] … n = 1”) (human TIGIT [4]) was 1.9 nM and the “Potency [nM], Jurkat human TIGIT/IL-2-luciferase RGA, n = 2” value (shortened to “Potency [nM] … n = 2”) (human TIGIT [4]) was 2.7 nM. The binding result (cynomolgus TIGIT [5]) was “no binding (tested: 1 µg/mL)” and the Kd (huTIGIT (PL44403)) was under 0.1 nM.

B2: 28B8 (antibody, V domains shown)
VH: QVQLQESGPGLVKPSETLFLTCTVSGGSVTNYYWSWIRQPAGKGLEWIGRIYTSGSTYYNPSLKSRVTMSLDTSKNQFSLRLSSVTAADTAVYYCAREGFTMVRGVMGAFDIWGQGTMVTVSS
VL: B1 VL with N28S, K39I, E45K, L46F, S50D, N53S, N56S, I93S, I94T, R107K
notes: as for B1
With B2 the binding result (cynoTIGIT (PL40461)) was “no binding”, the “% inhibition” value (human TIGIT [1]) was 97% and the “activity in the primary CD8 memory T-cell assay (IFN-γ release, CHO-K1-CD155+ cells)” value (human TIGIT [6]) was 160 pM. The “% inhibition” value (human TIGIT [2]) was 100%, the “FACS Geomean Fold” value (human TIGIT [3]) was 14.4 fold and the “Potency [nM] … n = 1” value (human TIGIT [4]) was 4.3 nM. The “Potency [nM] … n = 2” value (human TIGIT [4]) was 2.1 nM, the binding result (cynomolgus TIGIT [5]) was “no binding (tested: 1 µg/mL)” and the Kd (huTIGIT (PL44403)) was under 0.1 nM.

B3: human CD226-Fc (Fc fusion, UniProt Q15762 19-247, looked up, not shown: a dimerising Fc or GST)
chain: EEVLWHTSVPFAENMSLECVYPSMGILTQVEWFKIGTQQDSIAIFSPTHGMVIRKPYAERVYFLNSTMASNNMTLFFRNASEDDVGYYSCSLYTYPQGTWQKVIQVVQSDSFEAAVPSNSHIVSEPGKNVTLTCQPQMTWPVQAVRWEKIQPRQIDLLTYCNLVHGRNFTSKFPRQIVSNCSHGRWSVIVIPDVTVSDSGLYRCYLQASAGENETFVMRLTVAEGKTDN
notes: also called huCD226; CD226-Fc (R&D, 666-DN)
B3: binds (human CD155 on cells).

B4: human CD112-Fc (Fc fusion, UniProt Q92692 32-360, looked up, not shown: a dimerising Fc or GST)
chain: QDVRVQVLPEVRGQLGGTVELPCHLLPPVPGLYISLVTWQRPDAPANHQNVAAFHPKMGPSFPSPKPGSERLSFVSAKQSTGQDTEAELQDATLALHGLTVEDEGNYTCEFATFPKGSVRGMTWLRVIAKPKNQAEAQKVTFSQDPTTVALCISKEGRPPARISWLSSLDWEAKETQVSGTLAGTVTVTSRFTLVPSGRADGVTVTCKVEHESFEEPALIPVTLSVRYPPEVSISGYDDNWYLGRTDATLSCDVRSNPEPTGYDWSTTSGTFPTSAVAQGSQLVIHAVDSLFNTTFVCTVTNAVGMGRAEQVIFVRETPNTAGAGATGG
notes: treated as the same reagent; also called Human CD112 Ligand; CD112 ligand
B4 was tested, and the EC50 [7] was 1.61 µg/mL and 12.8 nM.

B5: 43B7 (antibody, V domains shown)
VH: QVQLQESGPGLVKPSQTLSLTCTVSGGSISSGGYYWSWIRQHPGKGLEWIGYIYYRGGTYYNPSLRSRVTMSVDTSKNQFSLMLSSVTAADTAVYYCARTIFGVIILDNWGQGTPVTVSS
VL: DIQMTQSPSSLSASVGDRVTITCRSSQSISSYLNWYQQKPGRAPKLLIHAASSLQSGVPSRFSGSGSGTDFTLTISSLQPEDFASYCCQQSYTTPPTFGGGTKVEIKR
notes: as for B1
For B5, the Kd (cynoTIGIT (PL40461)) was 13 nM, the “FACS Geomean Fold” value (cynomolgus TIGIT [8]) was 4.7 fold and the “% inhibition” value (human TIGIT [1]) was 100%. The “activity in the primary CD8 memory T-cell assay (IFN-γ release, CHO-K1-CD155+ cells)” value (human TIGIT [6]) was 90 pM, the “% inhibition” value (human TIGIT [2]) was 100% and the “FACS Geomean Fold” value (human TIGIT [3]) was 13.7 fold. For the same binder, the “Potency [nM] … n = 1” value (human TIGIT [4]) was 3.4 nM, the “Potency [nM] … n = 2” value (human TIGIT [4]) was 2.5 nM and the Kd (huTIGIT (PL44403)) was under 0.1 nM.
